ChEMBL document CHEMBL4196070, “Development of Piperazinediones as dual inhibitor for treatment of Alzheimer's disease” (Eur J Med Chem, 2018)

Columns and labels:
[1] = compound: O=C1C(Cc2ccccc2)N(S(=O)(=O)c2ccc(Cl)cc2)C(=O)C(Cc2ccccc2)N1S(=O)(=O)c1ccc(Cl)cc1; assay: (§1) Competitive inhibition of human MMP2 assessed as Vmax for substrate at 60 nM preincubated for 60 mins followed by Mca-Pro-Leu-Gly-Leu-Dpa-Ala-Arg-NH substrate addition by Lineweaver-Burk plot analysis (reference value: 3.4 to 3.6 nM/min)
[2] = compound: O=C1C(c2ccccc2)N(S(=O)(=O)c2ccc(Cl)cc2)C(=O)C(c2ccccc2)N1S(=O)(=O)c1ccc(Cl)cc1; assay: as §1
[3] = compound: O=C1C(Cc2ccccc2)N(S(=O)(=O)c2ccc(Cl)cc2)C(=O)C(Cc2ccccc2)N1S(=O)(=O)c1ccc(Cl)cc1; assay: (§2) Competitive inhibition of human MMP2 assessed as Vmax for substrate at 100 nM preincubated for 60 mins followed by Mca-Pro-Leu-Gly-Leu-Dpa-Ala-Arg-NH substrate addition by Lineweaver-Burk plot analysis (reference value: 3.4 to 3.6 nM/min)
[4] = compound: O=C1C(c2ccccc2)N(S(=O)(=O)c2ccc(Cl)cc2)C(=O)C(c2ccccc2)N1S(=O)(=O)c1ccc(Cl)cc1; assay: as §2
[5] = compound: O=C1C(Cc2ccccc2)N(S(=O)(=O)c2ccc(Cl)cc2)C(=O)C(Cc2ccccc2)N1S(=O)(=O)c1ccc(Cl)cc1; assay: (§3) Competitive inhibition of human MMP2 assessed as Km for substrate at 100 nM preincubated for 60 mins followed by Mca-Pro-Leu-Gly-Leu-Dpa-Ala-Arg-NH substrate addition by Lineweaver-Burk plot analysis (reference value: 10 to 25 nM)
[6] = compound: O=C1C(c2ccccc2)N(S(=O)(=O)c2ccc(Cl)cc2)C(=O)C(c2ccccc2)N1S(=O)(=O)c1ccc(Cl)cc1; assay: as §3
[7] = compound: O=C1C(Cc2ccccc2)N(S(=O)(=O)c2ccc(Cl)cc2)C(=O)C(Cc2ccccc2)N1S(=O)(=O)c1ccc(Cl)cc1; assay: (§4) Competitive inhibition of human MMP2 assessed as Km for substrate at 60 nM preincubated for 60 mins followed by Mca-Pro-Leu-Gly-Leu-Dpa-Ala-Arg-NH substrate addition by Lineweaver-Burk plot analysis (reference value: 10 to 25 nM)
[8] = compound: O=C1C(c2ccccc2)N(S(=O)(=O)c2ccc(Cl)cc2)C(=O)C(c2ccccc2)N1S(=O)(=O)c1ccc(Cl)cc1; assay: as §4

B1: 72 kDa type IV collagenase (Homo sapiens), P08253 (protein)
chain: MEALMARGALTGPLRALCLLGCLLSHAAAAPSPIIKFPGDVAPKTDKELAVQYLNTFYGCPKESCNLFVLKDTLKKMQKFFGLPQTGDLDQNTIETMRKPRCGNPDVANYNFFPRKPKWDKNQITYRIIGYTPDLDPETVDDAFARAFQVWSDVTPLRFSRIHDGEADIMINFGRWEHGDGYPFDGKDGLLAHAFAPGTGVGGDSHFDDDELWTLGEGQVVRVKYGNADGEYCKFPFLFNGKEYNSCTDTGRSDGFLWCSTTYNFEKDGKYGFCPHEALFTMGGNAEGQPCKFPFRFQGTSYDSCTTEGRTDGYRWCGTTEDYDRDKKYGFCPETAMSTVGGNSEGAPCVFPFTFLGNKYESCTSAGRSDGKMWCATTANYDDDRKWGFCPDQGYSLFLVAAHEFGHAMGLEHSQDPGALMAPIYTYTKNFRLSQDDIKGIQELYGASPDIDLGTGPTPTLGPVTPEICKQDIVFDGIAQIRGEIFFFKDRFIWRTVTPRDKPMGPLLVATFWPELPEKIDAVYEAPQEEKAVFFAGNEYWIYSASTLERGYPKPLTSLGLPPDVQRVDAAFNWSKNKKTYIFAGDKFWRYNEVKKKMDPGFPKLIADAWNAIPDNLDAVVDLQGGGHSYFFKGAYYLKLENQSLKSVKFGSIKSDWLGC
For B1, which Vmax [1] is on record?
The Vmax was 3.6 nM/min.

And the Vmax [2]?
The Vmax was 3.4 nM/min.

And the Vmax [3]?
Its Vmax is 3.6 nM/min.

And the Vmax [4]?
Its Vmax is 3.4 nM/min.

And the Km [5]?
Its Km is 0.048 µM.

What about the Km [6] of the same protein?
The Km was 0.07 µM.

And the Km [7]?
The Km was 0.024 µM.

What about the Km [8] of the same protein?
Its Km is 0.036 µM.
